Reference: patent US20150071918A1, “PEPTIDES FOR THE TREATMENT OF CANCER” (H. LEE MOFFITT CANCER CENTER AND RESEARCH INSTITUTE, INC., priority 2012, published 2015)
Like-named read-outs stand apart in the source and are kept apart here. *1 amine or outer side, *2 acyl side, *3 side chain or, on linkers, in order; H or OH if unused. Where a SMILES comes first, the peptide text is derived from it. Bridges are numbered along the chain shown (N, C = ends). Where no end group is shown, it is not given here. [ ]: non-standard residue; d: D form. The star is where a group is joined. T1 = linker NH2CH2CH2N(SO2Me)CH2COOH, CS(=O)(=O)N(CCN[*:1])CC(=O)[*:2]; dProlinol(O-CH2CO) = O=C(COC[C@H]1CCCN1[*:1])[*:2]; N(2-Aminoethyl)Gly = O=C(CN(CCN[*:3])[*:1])[*:2]; T3 = linker N(CH2)3CHCH2OCH2COOH; Nle = CCCC[C@H](N)C(=O)O; Ms = CS(=O)(=O)*

Experiments:
[1] = system: peripheral blood mononuclear cells (PBMC); assay: Cell death in normal peripheral blood mononuclear cells, annexin V positivity and FACS; type: cell-based, human; conditions: 6.25-50 ug/ml, six hours
Description: Peripheral blood mononuclear cells (PBMC) were isolated from a normal donor. Cells were treated with 6.25, 12.5, 25 and 50 ug/ml for six hours and cell death was measured by annexin V positivity and FACS analysis.
CD34^+ hematopoietic progenitor cells were isolated from peripheral blood and treated for 2 hrs with integrin interaction inhibitors (12.5 and 50 μg/ml) and then plated in a methylcellulose media supplemented with growth factors supporting myeloid and erythroid colonies. Colonies were counted on day 12 post-plating. […] In addition, we evaluated the toxicity of integrin interaction inhibitors in normal peripheral blood mononuclear cells (PBMC).

H929 myeloma cells = type: cell-based, human; conditions: for fold more potent than linear HYD1: reference of the 10- and 15-fold statements not expressly named; for bioactivity relative to parent/comparator peptide: SAR statements
Description: H929 cells were treated for 24 hours with varying concentrations of peptide. Cell death was measured by Topro-3 staining and FACS analysis. The IC50 values were obtained from linear regression analysis and an average value was obtained from 3 independent experiments.
Table 4 legend: Structure activity relationship in H929 myeloma cells of cyclic INTEGRIN INTERACTION INHIBITORS derivatives. The minimal bioactive core sequence of INTEGRIN INTERACTION INHIBITORS WSVVM (SEQ ID NO:33) was cyclized using 2 novel reduced amide bond beta turn promoters and KLKLK (SEQ ID NO:34) as the non-recognition sequence. H929 cells were treated with varying concentrations of the indicated peptide for 24 h. Cell viability was determined using Topro-3 staining and FACS analysis after drug treatment. IC50 values were generated from linear regressions generated from the dose response curves (n=mean of 3 independent experiments).
A colony forming assay was used to compare induced cell death in H929 multiple myeloma cells. Cells were treated with integrin interaction inhibitors, shown in FIG. 5 and Table 4, and cell death was measured following 24 hour peptide treatment by TOPRO-3 staining and FACS analysis.

[2] = target: Basigin (Homo sapiens (Human)) (UniProt P35613); assay: biotin-HYD1 NeutrAvidin pull-down of U266 membranes, LC-MS/MS
[3] = target: CD44 (endogenous, of NCI-H929, U266, U937 and HL-60 cells) (human) (UniProt P16070); assay: as above
CD59 [4] = target: CD59 (UniProt P13987); assay: as above
[5] = target: Intercellular adhesion molecule 1 (ICAM1) (Homo sapiens (Human)) (UniProt P05362); assay: as above
[6] = target: Intercellular adhesion molecule 3 (ICAM3) (Homo sapiens (Human)) (UniProt P32942); assay: as above
[7] = target: Syndecan-1 (Homo sapiens (Human)) (UniProt P18827); assay: as above
[8] = target: Basigin (Homo sapiens (Human)) (UniProt P35613); assay: biotin-HYD1 NeutrAvidin pull-down of NCI-H929 membranes, LC-MS/MS
[9] = target: CD44 (endogenous, of NCI-H929, U266, U937 and HL-60 cells) (human) (UniProt P16070); assay: as above
CD59 [10] = target: CD59 (UniProt P13987); assay: as above
[11] = target: Neural cell adhesion molecule 1 (NCAM1) (Homo sapiens (Human)) (UniProt P13591); assay: as above
[12] = target: Syndecan-1 (Homo sapiens (Human)) (UniProt P18827); assay: as above
[13] = target: α4 integrin (Homo sapiens (Human)) (UniProt P13612); assay: as above
β1 integrin = β1 integrin (UniProt P05556); assay: as above
[14] = target: recombinant human CD44 ectodomain (amino acids 20-178, His-tagged, refolded from E. coli) (human) (UniProt P16070); assay: SPR, recombinant CD44 ectodomain on biotin conjugated HYD1, two-state binding model
[15] = target: recombinant human CD44 ectodomain (amino acids 20-178, His-tagged, refolded from E. coli) (human) (UniProt P16070); assay: SPR, Biacore T100, recombinant CD44 ectodomain over biotin-HYD1 sensor chip, 1:1 binding model
CD59 [16] = target: CD59 (UniProt P13987); assay: LC-MS/MS of the biotin-HYD1 binding complex pulled down from NCI-H929 membranes (row CD59, column NCI-H929) [panel A.]
[17] = H929 myeloma cells, 24 h treatment, Topro-3 staining and FACS, mean of at least 3 independent experiments, read-out: IC50

Chain of CD59 (P13987 26-102 limits assumed): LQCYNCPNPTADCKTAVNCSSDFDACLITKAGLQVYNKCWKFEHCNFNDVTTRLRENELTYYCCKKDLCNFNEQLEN
Chain of Syndecan-1 (Homo sapiens (Human)) (P18827 23-310 L136Q/G259V limits assumed): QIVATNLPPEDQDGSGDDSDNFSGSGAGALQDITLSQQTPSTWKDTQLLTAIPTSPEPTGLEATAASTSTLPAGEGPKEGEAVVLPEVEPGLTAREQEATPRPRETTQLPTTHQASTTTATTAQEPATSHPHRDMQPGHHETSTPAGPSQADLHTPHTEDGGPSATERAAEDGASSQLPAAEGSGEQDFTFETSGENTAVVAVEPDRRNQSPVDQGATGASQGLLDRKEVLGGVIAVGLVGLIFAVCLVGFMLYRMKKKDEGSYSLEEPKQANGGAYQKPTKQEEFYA
Chain of Basigin (Homo sapiens (Human)) (P35613 other isoform, or with tags, fused parts or gaps limits assumed): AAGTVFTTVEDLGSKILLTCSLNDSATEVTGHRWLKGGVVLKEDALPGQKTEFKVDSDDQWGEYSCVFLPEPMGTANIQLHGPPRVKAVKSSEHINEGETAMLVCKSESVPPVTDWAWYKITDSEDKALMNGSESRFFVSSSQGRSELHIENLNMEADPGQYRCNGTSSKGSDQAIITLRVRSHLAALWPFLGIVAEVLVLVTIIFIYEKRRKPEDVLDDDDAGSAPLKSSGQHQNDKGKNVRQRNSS
Chain of CD44 (endogenous, of NCI-H929, U266, U937 and HL-60 cells) (human) (P16070 21-742 limits assumed): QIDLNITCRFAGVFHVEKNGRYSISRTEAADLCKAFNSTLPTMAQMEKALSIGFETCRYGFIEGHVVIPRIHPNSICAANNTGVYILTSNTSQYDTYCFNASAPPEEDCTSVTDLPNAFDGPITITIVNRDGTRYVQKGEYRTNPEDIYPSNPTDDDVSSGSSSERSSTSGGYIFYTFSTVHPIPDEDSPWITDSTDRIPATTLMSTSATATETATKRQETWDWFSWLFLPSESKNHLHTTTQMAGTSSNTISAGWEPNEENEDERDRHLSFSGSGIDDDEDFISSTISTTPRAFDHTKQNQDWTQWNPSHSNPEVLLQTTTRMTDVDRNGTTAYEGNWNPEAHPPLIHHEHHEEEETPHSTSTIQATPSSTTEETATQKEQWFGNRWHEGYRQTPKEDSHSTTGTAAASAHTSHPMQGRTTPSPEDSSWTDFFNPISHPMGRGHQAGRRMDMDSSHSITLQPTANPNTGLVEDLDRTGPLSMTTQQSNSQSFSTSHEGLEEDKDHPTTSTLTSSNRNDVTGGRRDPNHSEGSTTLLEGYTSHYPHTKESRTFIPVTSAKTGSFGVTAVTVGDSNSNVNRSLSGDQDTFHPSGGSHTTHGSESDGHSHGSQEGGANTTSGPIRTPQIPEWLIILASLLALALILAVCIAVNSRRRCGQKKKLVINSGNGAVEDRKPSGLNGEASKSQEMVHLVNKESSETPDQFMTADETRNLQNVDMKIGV
Chain of recombinant human CD44 ectodomain (amino acids 20-178, His-tagged, refolded from E. coli) (human) (P16070 20-178): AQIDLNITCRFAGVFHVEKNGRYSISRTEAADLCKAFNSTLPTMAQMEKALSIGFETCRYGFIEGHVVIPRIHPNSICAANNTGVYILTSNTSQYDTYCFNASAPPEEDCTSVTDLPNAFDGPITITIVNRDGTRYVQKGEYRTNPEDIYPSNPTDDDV
Chain of β1 integrin (P05556 21-798): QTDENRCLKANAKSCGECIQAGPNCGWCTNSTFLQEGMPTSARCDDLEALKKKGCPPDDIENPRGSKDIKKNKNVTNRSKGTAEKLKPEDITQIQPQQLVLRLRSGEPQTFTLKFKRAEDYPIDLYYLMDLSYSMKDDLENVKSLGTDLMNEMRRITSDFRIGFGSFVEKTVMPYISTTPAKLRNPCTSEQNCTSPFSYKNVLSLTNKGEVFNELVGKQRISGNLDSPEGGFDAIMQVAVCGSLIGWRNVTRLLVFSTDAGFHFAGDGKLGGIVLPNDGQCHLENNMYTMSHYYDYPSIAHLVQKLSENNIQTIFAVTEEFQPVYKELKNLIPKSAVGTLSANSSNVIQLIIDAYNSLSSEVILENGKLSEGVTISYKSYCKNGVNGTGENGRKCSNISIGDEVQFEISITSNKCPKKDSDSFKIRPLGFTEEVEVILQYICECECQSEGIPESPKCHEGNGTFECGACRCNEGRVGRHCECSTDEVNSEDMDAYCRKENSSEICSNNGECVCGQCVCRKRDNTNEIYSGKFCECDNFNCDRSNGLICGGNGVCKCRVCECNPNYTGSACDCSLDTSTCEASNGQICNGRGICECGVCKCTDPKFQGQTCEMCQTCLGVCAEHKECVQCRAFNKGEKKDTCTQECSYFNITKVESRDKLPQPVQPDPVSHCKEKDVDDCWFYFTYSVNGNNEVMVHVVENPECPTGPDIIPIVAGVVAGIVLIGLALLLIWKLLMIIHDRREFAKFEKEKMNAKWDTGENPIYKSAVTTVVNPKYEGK
Chain of Neural cell adhesion molecule 1 (NCAM1) (Homo sapiens (Human)) (P13591 other isoform, or with tags, fused parts or gaps limits assumed): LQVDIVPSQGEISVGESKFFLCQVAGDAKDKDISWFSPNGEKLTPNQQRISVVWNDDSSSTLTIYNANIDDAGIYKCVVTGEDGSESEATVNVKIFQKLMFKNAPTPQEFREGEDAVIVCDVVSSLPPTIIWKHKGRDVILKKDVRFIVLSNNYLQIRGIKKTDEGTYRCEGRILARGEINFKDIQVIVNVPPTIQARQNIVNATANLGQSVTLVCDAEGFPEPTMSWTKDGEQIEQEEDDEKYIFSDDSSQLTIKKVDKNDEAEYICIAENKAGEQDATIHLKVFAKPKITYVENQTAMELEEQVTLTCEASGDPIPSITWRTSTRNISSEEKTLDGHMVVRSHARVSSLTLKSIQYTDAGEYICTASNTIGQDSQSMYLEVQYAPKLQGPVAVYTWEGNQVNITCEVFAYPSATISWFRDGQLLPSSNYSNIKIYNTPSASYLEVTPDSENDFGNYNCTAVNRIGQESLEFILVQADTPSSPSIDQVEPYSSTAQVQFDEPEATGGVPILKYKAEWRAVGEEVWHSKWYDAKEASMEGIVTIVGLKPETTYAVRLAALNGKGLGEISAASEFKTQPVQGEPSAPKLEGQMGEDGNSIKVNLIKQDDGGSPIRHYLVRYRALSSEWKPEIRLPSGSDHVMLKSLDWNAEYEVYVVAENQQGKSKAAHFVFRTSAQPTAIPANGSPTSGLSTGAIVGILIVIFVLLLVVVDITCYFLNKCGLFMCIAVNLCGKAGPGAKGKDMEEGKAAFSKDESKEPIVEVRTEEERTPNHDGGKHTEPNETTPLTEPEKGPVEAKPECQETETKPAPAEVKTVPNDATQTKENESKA
Chain of Intercellular adhesion molecule 3 (ICAM3) (Homo sapiens (Human)) (P32942 30-547 limits assumed): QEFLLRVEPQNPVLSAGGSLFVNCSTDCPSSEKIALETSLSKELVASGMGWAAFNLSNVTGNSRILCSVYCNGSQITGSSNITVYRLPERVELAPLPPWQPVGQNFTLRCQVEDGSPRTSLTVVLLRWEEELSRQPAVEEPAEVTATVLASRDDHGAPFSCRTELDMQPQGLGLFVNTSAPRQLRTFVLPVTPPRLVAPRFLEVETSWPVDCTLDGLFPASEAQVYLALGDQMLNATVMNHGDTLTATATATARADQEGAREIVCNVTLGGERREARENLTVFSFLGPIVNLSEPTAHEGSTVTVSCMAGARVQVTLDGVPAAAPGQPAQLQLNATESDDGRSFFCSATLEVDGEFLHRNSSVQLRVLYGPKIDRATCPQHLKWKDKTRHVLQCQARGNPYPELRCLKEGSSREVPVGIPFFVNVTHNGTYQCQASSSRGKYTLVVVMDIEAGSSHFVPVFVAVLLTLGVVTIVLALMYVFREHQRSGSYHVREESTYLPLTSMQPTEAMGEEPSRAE
Chain of Intercellular adhesion molecule 1 (ICAM1) (Homo sapiens (Human)) (P05362 28-532 limits assumed): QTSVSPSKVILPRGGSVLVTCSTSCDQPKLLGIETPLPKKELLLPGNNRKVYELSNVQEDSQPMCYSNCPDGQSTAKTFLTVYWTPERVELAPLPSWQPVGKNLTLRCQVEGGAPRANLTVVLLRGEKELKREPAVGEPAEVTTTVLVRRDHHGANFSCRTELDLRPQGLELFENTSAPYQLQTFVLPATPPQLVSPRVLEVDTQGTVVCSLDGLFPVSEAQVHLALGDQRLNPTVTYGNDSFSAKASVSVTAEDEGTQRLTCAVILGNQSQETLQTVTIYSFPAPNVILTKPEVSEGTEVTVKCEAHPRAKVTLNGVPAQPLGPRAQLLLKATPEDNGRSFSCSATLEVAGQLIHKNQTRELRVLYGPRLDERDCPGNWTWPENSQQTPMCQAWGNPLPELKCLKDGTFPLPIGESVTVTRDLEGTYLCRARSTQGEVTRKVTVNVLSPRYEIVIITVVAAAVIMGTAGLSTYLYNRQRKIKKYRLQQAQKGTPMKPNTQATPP

CC[C@@H](C)[C@@H](NC(=O)[C@H](N)CCCCN)C(=O)N[C@H](CCCCN)C(=O)N[C@H](CCSC)C(=O)N[C@@H](C(=O)N[C@@H](C(=O)N[C@H](CO)C(=O)N[C@H](Cc1c[nH]c2ccccc12)C(=O)N[C@H](CCCCN)C(=O)NCC(=O)O)[C@H](C)CC)C(C)C [HYD1]
cell death in PBMC [1]: more potent in MM cells (H929) compared to normal hematopoietic cells

CSCC[C@@H]1NC(=O)CN(S(C)(=O)=O)CCNC(=O)[C@H](CCCCN)NC(=O)[C@H](CC(C)C)NC(=O)[C@H](CCCCN)NC(=O)[C@H](CC(C)C)NC(=O)[C@H](CCCCN)NC(=O)CN(S(C)(=O)=O)CCNC(=O)[C@H](Cc2c[nH]c3ccccc23)NC(=O)[C@H](C)NC(=O)[C@H](C(C)C)NC(=O)[C@H](C(C)C)NC1=O [Peptide 4, KLKLKT1MVVAWT1]
fold more potent than linear HYD1 (H929 myeloma cells; H929 cells): approximately 10 fold
bioactivity relative to parent/comparator peptide (H929 myeloma cells; H929 cells): significantly improved the bioactivity
bioactivity relative to parent/comparator peptide (H929 myeloma cells; H929 cells, listed as L-cINTEGRIN INTERACTION INHIBITORSa7): increase in activity

KQKLKT1N*VVAWT3 (cyclo(KQKLK[T1][Nle]VVAW[T3])) [Peptide 20]
IC50 (H929 myeloma cells; [17]): 15 µM
IC50 (H929 myeloma cells; Table 8, cyclic III peptide analogs, H929 cells, read-out: IC50): 18 µM

CCCC[C@@H]1NC(=O)CN(S(C)(=O)=O)CCNC(=O)[C@H](CCCCN)NC(=O)[C@H](CC(C)C)NC(=O)[C@H](CCCCN)NC(=O)[C@H](CC(C)C)NC(=O)[C@H](CCCCN)NC(=O)COC[C@H]2CCCN2C(=O)[C@H](Cc2c[nH]c3ccccc23)NC(=O)[C@H](C)NC(=O)[C@H](C(C)C)NC(=O)[C@H](C(C)C)NC1=O [Peptide 16, KLKLKT1N*VVAWT3] (Ms-[N(2-Aminoethyl)Gly][Nle]VVAW[dProlinol(O-CH2CO)]KLKLK; lactam 1-C)
IC50 (H929 myeloma cells; [17]): 13 µM
IC50 (H929 myeloma cells; text b390, H929 multiple myeloma cells, read-out: bioactivity): 1 µM

CCCC[C@@H]1NC(=O)[C@H](C(C)C)NC(=O)[C@H](C(C)C)NC(=O)[C@H](C)NC(=O)[C@H](Cc2c[nH]c3ccccc23)NC(=O)COC[C@H]2CCCN2C(=O)[C@H](CCCCN)NC(=O)[C@H](CC(C)C)NC(=O)[C@H](CCCCN)NC(=O)[C@H](CC(C)C)NC(=O)[C@H](CCCCN)NC(=O)COC[C@H]2CCCN2C1=O [Peptide 22, KLKLKT3WAVVN*T3] (cyclo(KLKLK[dProlinol(O-CH2CO)]WAVV[Nle][dProlinol(O-CH2CO)]))
IC50 (H929 myeloma cells; 24 h): 17 µM

CSCC[C@@H]1NC(=O)CN(S(C)(=O)=O)CCNC(=O)[C@H](CCCCN)NC(=O)[C@H](CC(C)C)NC(=O)[C@H](CCCCN)NC(=O)[C@H](CC(C)C)NC(=O)[C@H](CCCCN)NC(=O)CN(S(C)(=O)=O)CCNC(=O)[C@H](Cc2c[nH]c3ccccc23)NC(=O)[C@H](CO)NC(=O)[C@H](C(C)C)NC(=O)[C@H](C(C)C)NC1=O [Peptide 2, KLKLKT1MVVSWT1]
fold more potent compared to the cyclic D-HYD1 variant (H929 myeloma cells; H929 cells): 2 fold
fold more potent than linear HYD1 (H929 myeloma cells; H929 cells): 2.5 fold

CCCC[C@@H]1NC(=O)CN(S(C)(=O)=O)CCNC(=O)[C@H](CCCCN)NC(=O)[C@H](CC(C)C)NC(=O)[C@H](CCCCN)NC(=O)[C@H](CC(C)C)NC(=O)[C@H](CCCCN)NC(=O)CN(S(C)(=O)=O)CCNC(=O)[C@H](Cc2c[nH]c3ccccc23)NC(=O)[C@H](CO)NC(=O)[C@H](C(C)C)NC(=O)[C@H](C(C)C)NC1=O [Peptide 8, KLKLKT1N*VVSWT1]
fold more potent than linear HYD1 (H929 myeloma cells; H929 cells): 15 fold
bioactivity relative to parent/comparator peptide (H929 myeloma cells; H929 cells): resulted in a further increase of the peptide's bioactivity

B1: biotin-HYD1 (biotin conjugated HYD1, all D-amino acid peptide kikmviswkg) (peptide)
peptide: [dK][dI][dK][dM][dV][dI][dS][dW][dK]G
modifications: also: biotin conjugated, site not given here
Peptide match (peptide match hits) [2]: 8
Peptide match (peptide match hits) [3]: 5
Peptide match (peptide match hits) (CD59 [4]): 2
Peptide match (peptide match hits) [5]: 6
Peptide match (peptide match hits) [6]: 3
Peptide match (peptide match hits) [7]: 6
Peptide match (peptide match hits) [8]: 7
Peptide match (peptide match hits) [9]: 7
Peptide match (peptide match hits) (CD59 [10]): 2
Peptide match (peptide match hits) [11]: 4
Peptide match (peptide match hits) [12]: 5
Peptide match (peptide match hits) [13]: 3
Peptide match (peptide match hits) (β1 integrin): 2
Kd [14]: 0.0244 µM
Kd [15]: 0.026 µM
# peptides identified (CD59 [16]): 3 peptides
